Test results published in the supplement of paper PMC9170038.

System: K4 kissing-loop RNA reporter
Assay: apparent KD of K4 kissing-loop reporter; higher = weaker reporter binding
Conditions: Eterna round: R107
Procedure: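 RNA-MaP round R107: designed RNA switches with theophylline, tryptophan, arginine or FMN aptamers are transcribed on-chip within common flanks. They are titrated with a labelled K4 kissing-loop RNA reporter in RNA-MaP buffer (100 mM Tris pH 7.5, 80 mM KCl, 4 mM MgCl2), without ligand or with the indicated ligand. Median apparent KD per design.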

[1] = input ligand: theophylline 20 uM
[2] = input ligand: tryptophan 2.4 mM
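Also: bound reporter read as fluorescence of individual clusters on recovered sequencing chips by microscopy, with normalized cluster intensities fitted with a binding model.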

Sequence | apparent KD of K4 kissing-loop reporter (input ligand: FMN 200 uM) [nM] | apparent KD of K4 kissing-loop reporter (input ligand: arginine 13.2 mM) [nM] | apparent KD of K4 kissing-loop reporter (input ligand: none) [nM] | apparent KD of K4 kissing-loop reporter [1] [nM] | apparent KD of K4 kissing-loop reporter [2] [nM]
UGAUAGGACAGAAGGAGCGGGCUAGUCAAAGACUAGCAAACGUUAAUAACAGGAGUGAUGUUCCAGGUAGGUCGCUGUCCUAUCU [ArgBX 25 #SwitchBubble #StaticStem] | 136 | 120 | 143 | 138 | 120
UGAUAGGACAGAAGGAGCGGUAGUGAUGUUGCCAAAAGAAUAAGGUGUCAAAAGACACCCUACCAGGUAGGUCGCUGUCCUAUCU | 346 | 368 | 423 | 429 | 289
UGAUUGCCAGUGAUGUUGGCAUAUACUGAAGGAGCGCGUGAAAACGCAGGUAGGUCGCAGUUCCUUGCCAAUUGAUCGAAAGAUC [KL-XArg-A1] | 130 | 138 | 137 | 150 | 127
UGAUUUAACUGAAGGAGCGGCAAUAGAGAAGGAAAUAUAGUGAUGUUAUAUAAGAGAGAGAGCCAGGUAGGUCGCAGAGGGAGGA [ExArgB.F] | 181 | 128 | 137 | 171 | 151
UGCACGGGCUCGGCCGCCACUCCCGCGGGUCGGAAGGUCCGCUACUGAGUGAUGUUCGGUUGGAGGAGGACCGGGAGCCCGUGCA [#2 Exclusion - Tryptophan B Attempt #26 (HarryS)] | 135 | 109 | 104 | 104 | 88.5
UGCGCUGUGUACUGAAAUGUUCUGCGGGAUACCAGAGUCUUUUUAUUCCCUUGGCAGCUUGAGUGAUGUUUGAUGCCGUUCUUGU [tffeymullin] | 494 | 279 | 513 | 521 | 435
UGGACCUGACUCGAUAAGAGUCAAUGAGAUACCAGUGACGAAAGUCACCCUUGGCAGCUCACUGCCAGUGAUGUUGGUAGGUCCU [#SwitchBubble 3 #StaticStem] | 1250 | 919 | 1300 | 738 | 1070
UGGACGAAUAUCGAUAAGAUAUUCUGGGAUACCAGUGACGAAAGUCACCCUUGGCAGCUCAACUGCCAGUGAUGUUGGUAGUCCA [Astros-Elo-mod#3] | 238 | 142 | 218 | 162 | 165
UGGAGUUGACGAAAAGUCAACUCCCGAGAAGGAGCGGACGAAAGUCCAGGUAGGUCGCUCGCUACCAGUGAUGUUGGUACUGAAA | 125 | 180 | 126 | 160 | 105
UGGAUAUCGUUUAGUCUGGUGAGCUCAGAUACCAGACUAGCGAUGGUCCCUUGGCAGCUGAUUACGAUUGAGUGAUGUUCAAUCG [Theo A Ex t9c] | 168 | 152 | 172 | 160 | 158
UGGCCUUAAAUUCUAGGAUUAGCGACGUACAAGGAUAUUCGUCAUCGAAGAAGGUGUAGCUAGGAGAGUGAUGUUUUCCAUCGCC [theeternabot_sameState_KL_FMN_A_15] | 640 | 449 | 549 | 576 | 504
UGGCGUUGAACCGCCGAAUCGCUGUGAGAAGGAGCGGUAAAAUUGCCAGGUAGGUCGCUCACAGCUUCACAGUGAUGUUGUGGAA [Enxeisen] | 248 | 161 | 408 | 212 | 188
UGGGAUUUGUCAGGAUAUGAGUGCAGUGAUGUUGCACUUAAUAAAGUACAUAGGCCCUGCUGGCACUCAGAAGGGACGGUGAUGC [Lalasobeer] | 122 | 73.6 | 103 | 86.7 | 92.4
UGUACAUGUCACCGAGUGAUGUUCGACGAUACCAGACUCGAUAGAGUCCCUUGGCAGCGUAACGCAUGCCAAAGUGGCAUGUACU [#SwitchBubble 10 #K4Early] | 925 | 521 | 721 | 496 | 598
UGUACAUGUCAGCGAGUGAUGUUCGACGAUACCAGACUCGAUAGAGUCCCUUGGCAGCGUAACGCAUGCCAAACUGGCAUGUACU [#SwitchBubble 9 #K4Early] | 789 | 819 | 1120 | 646 | 773
UGUACCGAGUCAGGAUAUCAAAAUAAUUGGAGUGAUGUUCCAAAUACGACUGACAAAGUCGGUCGAUGAGAAGGGACUUGGUACU [FmnBS 11 #SwitchBubble #StaticStem] | 118 | 122 | 122 | 163 | 114
UGUACCGAGUCAGGAUAUGACGACUAGUCAAAGACUGGUCGAAAAUCCAGUGAUGUUGGAAAUAAAUCAGAAGGGACUUGGUACU [FmnBS 16 #SwitchBubble #StaticStem] | 124 | 309 | 272 | 357 | 296
UGUACCGAGUCAGGAUAUGGCGUCGAAAGACGAAAACCAGUGAUGUUGGAAAUCUGCGAAAGCAGUCCAGAAGGGACUUGGUACU [FmnBS 25 #SwitchBubble #StaticStem #DoubleMagnetSystem] | 199 | 233 | 266 | 251 | 251
UGUACCGAGUCAGGAUAUGGCGUCGAAAGACGAAACCAGUGAUGUUGGAAUAUCGACGAAAGUCGUCCAGAAGGGACUUGGUACU [FmnBS 17 #SwitchBubble #StaticStem #DoubleMagnetSystem] | 153 | 264 | 256 | 264 | 273
UGUACCGAGUUAGGAUAUGUCGUCGAAAGACGAAAUGGAGUGAUGUUCCUUAAACUGCGAAAGCAGACAGAAGGGACUUGGUACU [FmnBS 29 U11] | 233 | 473 | 474 | 493 | 429
UGUACCGAUUCAGGAUAUGUCGUCGAAAGACGAAAUGGAGUGAUGUUCCUUAAACUGCGAAAGCAGACAGAAGGGAAUUGGUACU [FmnBS 29 U9+A77] | 146 | 285 | 300 | 318 | 284
